Experimental data: patent US20240261333A1 (published 2024)
Blank lines part the entries; values can stand above or below the binder they belong to.

Experiments:
RPL5 = RPL5 (UniProt P46777 2-297); assay: co-IP, anti-FLAG, N-FLAG B3GNT2 cell lysate, mass spectrometry
Experimental: (§1) Cells were plated in 10-cm cell culture dishes and grown to 60-80% confluency. For each condition, two biological replicates were harvested for co-IP. Cells were washed with PBS and 4 mL of lysis buffer (20 mM HEPES, 1% Triton X-100, 150 mM NaCl, 1 mM EDTA, and 10% glycerol) containing protease inhibitor cocktail was added. Cells were scraped and lysate was incubated at 4° C. under rotary agitation for 1 h. Lysate was centrifuged at 14,000×g for 10 min at 4° C. Supernatant was transferred to a new tube and an aliquot was taken as the input. […] For Western blots, 10 μg/mL Chicken Anti-FLAG (Aves labs ET-DY100) and IgY control (R&D Systems AB-101-C) antibodies were biotinylated (Thermo Fisher Scientific 90407) and added to the respective conditions. Lysates with antibodies were incubated at 4° C. under rotary agitation overnight. For each mL of lysate, 50 μL of Pierce Protein A/G Magnetic Beads (Mass spectrometry; Thermo Fisher Scientific 88803) or Pierce Streptavidin Magnetic Beads (Western blot; Thermo Fisher Scientific 88817) was washed twice with lysis buffer. Lysates with antibodies were added to the beads and incubated at 4° C. under rotary agitation for 4 h. Beads were washed with lysis buffer 3 times and resuspended in lysis buffer for storage.
(§2) Magnetic beads were resuspended in 100 mM Tris pH 7.8, reduced, alkylated and digested with trypsin at 37° ° C. overnight. This solution was subjected to solid phase extraction to concentrate the peptides and remove unwanted reagents followed by injection onto a Shimadzu HPLC with fraction collector. Eight fractions were collected and after concentration were injected on a Waters NanoAcquity HPLC equipped with a self-packed Aeris 3 μm C18 analytical column 0.075 mm by 20 cm, (Phenomenex). Peptides were eluted using standard reverse-phase gradients. The effluent from the column was analyzed using a Thermo Orbitrap Elite mass spectrometer (nanospray configuration) operated in a data dependent manner for 54 minutes. The resulting fragmentation spectra were correlated against the known database using Proteome Discover 1.4 (Thermo Fisher Scientific).

HNRNPU = biological target: T1, HNRNPU (UniProt Q00839 2-825); assay: as above
T1 construct: also called NP_114032.2
Experimental: as §1, §2

HSPB1 = biological target: T2, HSPB1 (UniProt P04792 1-205); assay: as above
T2 construct: also called NP_001531.1
Experimental: as §1, §2

RPS19 = RPS19 (UniProt P39019 2-145); assay: as above
Experimental: as §1, §2

SRSF3 = biological target: T3, SRSF3 (UniProt P84103 1-164); assay: as above
T3 construct: also called NP_003008.1
T3 sequence (looked up): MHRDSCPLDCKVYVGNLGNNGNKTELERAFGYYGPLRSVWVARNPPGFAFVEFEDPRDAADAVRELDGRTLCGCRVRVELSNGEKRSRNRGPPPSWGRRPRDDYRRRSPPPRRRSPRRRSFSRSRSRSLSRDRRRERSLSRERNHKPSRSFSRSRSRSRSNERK
Experimental: as §1, §2

LGALS7B = biological target: T4, LGALS7B (human, UniProt P47929 1-136); assay: co-IP with anti-FLAG, N-FLAG B3GNT2, mass spectrometry
T4 construct: also called NP_001035972.1

FLG = biological target: T5, FLG (human, UniProt P20930 1-4061, limits assumed); assay: as above
T5 construct: also called NP_002007.1

RPL38 = RPL38 (human, UniProt P63173 1-70); assay: as above
TTC13 = biological target: T6, TTC13 (human, UniProt Q8NBP0-2 1-806, limits assumed); assay: as above
T6 construct: also called NP_001116307.2 (+5)
T6 sequence (looked up): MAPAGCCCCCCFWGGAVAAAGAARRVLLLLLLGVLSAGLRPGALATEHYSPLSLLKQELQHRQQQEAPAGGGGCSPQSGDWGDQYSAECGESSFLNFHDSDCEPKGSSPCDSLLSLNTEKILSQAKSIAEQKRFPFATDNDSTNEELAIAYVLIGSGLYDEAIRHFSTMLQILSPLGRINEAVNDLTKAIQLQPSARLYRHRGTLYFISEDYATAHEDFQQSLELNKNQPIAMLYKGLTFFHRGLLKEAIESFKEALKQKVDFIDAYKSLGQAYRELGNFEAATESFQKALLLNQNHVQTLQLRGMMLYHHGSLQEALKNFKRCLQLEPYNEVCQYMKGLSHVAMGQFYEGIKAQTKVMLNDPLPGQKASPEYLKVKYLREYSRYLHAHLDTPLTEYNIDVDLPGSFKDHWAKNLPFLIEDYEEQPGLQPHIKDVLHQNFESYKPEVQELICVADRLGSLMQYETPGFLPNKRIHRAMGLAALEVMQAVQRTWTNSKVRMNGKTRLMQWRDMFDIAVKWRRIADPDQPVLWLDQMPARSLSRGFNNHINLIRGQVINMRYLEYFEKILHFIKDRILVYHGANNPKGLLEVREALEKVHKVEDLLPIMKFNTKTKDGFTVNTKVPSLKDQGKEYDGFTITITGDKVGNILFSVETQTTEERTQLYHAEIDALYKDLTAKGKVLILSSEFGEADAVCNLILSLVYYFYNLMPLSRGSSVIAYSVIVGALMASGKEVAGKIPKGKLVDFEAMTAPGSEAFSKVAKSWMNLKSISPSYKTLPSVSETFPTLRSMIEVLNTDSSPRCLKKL

T2 sequence (P04792 whole entry): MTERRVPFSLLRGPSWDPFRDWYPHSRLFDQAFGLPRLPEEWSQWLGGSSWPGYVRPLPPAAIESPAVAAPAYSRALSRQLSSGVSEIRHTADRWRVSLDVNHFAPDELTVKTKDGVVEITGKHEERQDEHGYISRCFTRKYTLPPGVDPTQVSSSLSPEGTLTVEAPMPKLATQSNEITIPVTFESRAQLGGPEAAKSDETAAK
T1 sequence (Q00839 2-825 limits assumed): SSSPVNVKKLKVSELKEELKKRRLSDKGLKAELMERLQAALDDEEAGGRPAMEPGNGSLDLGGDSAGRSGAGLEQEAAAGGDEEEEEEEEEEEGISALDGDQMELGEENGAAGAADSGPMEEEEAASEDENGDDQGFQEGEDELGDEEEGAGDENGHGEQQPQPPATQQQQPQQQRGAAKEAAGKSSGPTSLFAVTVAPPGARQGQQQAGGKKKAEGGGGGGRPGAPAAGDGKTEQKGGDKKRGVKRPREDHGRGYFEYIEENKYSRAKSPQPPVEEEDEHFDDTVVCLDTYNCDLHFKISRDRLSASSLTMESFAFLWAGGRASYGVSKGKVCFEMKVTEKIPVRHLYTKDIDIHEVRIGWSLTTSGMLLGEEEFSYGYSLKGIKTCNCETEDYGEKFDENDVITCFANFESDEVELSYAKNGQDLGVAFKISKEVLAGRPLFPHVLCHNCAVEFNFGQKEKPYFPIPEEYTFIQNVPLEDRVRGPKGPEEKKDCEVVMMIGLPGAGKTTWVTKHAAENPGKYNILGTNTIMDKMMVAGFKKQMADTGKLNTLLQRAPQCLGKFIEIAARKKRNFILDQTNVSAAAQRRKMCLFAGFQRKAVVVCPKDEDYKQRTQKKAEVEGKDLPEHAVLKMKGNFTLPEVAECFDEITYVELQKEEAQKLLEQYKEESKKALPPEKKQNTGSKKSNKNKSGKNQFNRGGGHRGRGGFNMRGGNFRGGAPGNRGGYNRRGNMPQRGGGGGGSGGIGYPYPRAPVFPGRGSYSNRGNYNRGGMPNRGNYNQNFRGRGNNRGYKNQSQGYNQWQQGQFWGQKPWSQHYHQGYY
T4 sequence (P47929 whole entry): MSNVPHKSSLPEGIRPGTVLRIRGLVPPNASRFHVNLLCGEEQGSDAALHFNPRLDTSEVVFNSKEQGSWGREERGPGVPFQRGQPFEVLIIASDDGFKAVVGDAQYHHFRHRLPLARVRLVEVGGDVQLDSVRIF

co-IP mass spectrometry count (RPL5): 0
co-IP mass spectrometry count (HNRNPU): 0
co-IP mass spectrometry count (HSPB1): 3
co-IP mass spectrometry count (RPS19): 5
co-IP mass spectrometry count (SRSF3): 6
B1: N-terminal FLAG tagged B3GNT2 (enzyme, human, UniProt Q9NY97 1-397, looked up)
chain: MSVGRRRIKLLGILMMANVFIYFIMEVSKSSSQEKNGKGEVIIPKEKFWKISTPPEAYWNREQEKLNRQYNPILSMLTNQTGEAGRLSNISHLNYCEPDLRVTSVVTGFNNLPDRFKDFLLYLRCRNYSLLIDQPDKCAKKPFLLLAIKSLTPHFARRQAIRESWGQESNAGNQTVVRVFLLGQTPPEDNHPDLSDMLKFESEKHQDILMWNYRDTFFNLSLKEVLFLRWVSTSCPDTEFVFKGDDDVFVNTHHILNYLNSLSKTKAKDLFIGDVIHNAGPHRDKKLKYYIPEVVYSGLYPPYAGGGGFLYSGHLALRLYHITDQVHLYPIDDVYTGMCLQKLGLVPEKHKGFRTFDIEEKNKNNICSYVDLMLVHSRKPQEMIDIWSQLQSAHLKC
notes: Bait of the co-IP; pulled down with mouse anti-FLAG from cell lysate; also called N-FLAG B3GNT2; N-term FLAG; not shown: FLAG tag at the N-terminus

co-IP mass spectrometry count (LGALS7B): 7
co-IP mass spectrometry count (FLG): 29
co-IP mass spectrometry count (RPL38): 9
B2: N-terminal FLAG tagged B3GNT2 (enzyme, human, UniProt Q9NY97 1-397, looked up)
chain: B1 chain
notes: FLAG-tagged ORF overexpressed in cells; pulled down from lysate with mouse anti-FLAG; also called N-FLAG B3GNT2; N-term FLAG; not shown: N-terminal FLAG tag

co-IP/MS count, N-term FLAG (TTC13): 0
B3: N-terminal FLAG tagged B3GNT2 (enzyme, human, UniProt Q9NY97 1-397, looked up)
chain: B1 chain
notes: FLAG-tagged ORF overexpressed in A375 cells; pulled down from the lysate with mouse anti-FLAG; also called N-FLAG B3GNT2; N-term FLAG; not shown: N-terminal FLAG tag
